For 20 compounds, helicity results are on record in patent publication US9957299B2, “Peptidomimetic macrocycles” (AILERON THERAPEUTICS, INC., priority 2010, dated 2018).

Numbered stars: 1 amine (or outer) side, 2 acyl side, 3 side chain; on linkers, the order of the positions; unused ones are H or OH. Bridge positions count the residues as written; N and C are the ends. Square brackets hold non-standard residues; d marks the D form. Peptide text beside a SMILES is read from it. X2 = C[C@@](Cc1c[nH]c2cc(Cl)ccc12)(N[*:1])C(=O)[*:2]; Trp(6-Cl) = N[C@@H](Cc1c[nH]c2cc(Cl)ccc12)C(=O)O; R8 = C=CCCCCCC[C@@](C)(N)C(=O)O; S5 = C=CCCC[C@](C)(N)C(=O)O; Ac3c = NC1(C(=O)O)CC1; Aib = CC(C)(N)C(=O)O

The nature of this series: circular dichroism. The note with it: aqueous, '0% TFE' (buffer not stated; general: 50 mM potassium phosphate pH 7 or water); pH ns; ns °C; 25-50 uM (general text). In general terms: Circular dichroism is the unequal absorption of left and right circularly polarised light.

For `C=CCCCCCC[C@@](C)(NC(=O)[C@H](Cc1ccccc1)NC(=O)[C@@H](NC(=O)[C@H](CCC(N)=O)NC(=O)[C@H](CCC(N)=O)NC(=O)[C@H](CO)NC(=O)[C@H](CCC(N)=O)NC(C)=O)[C@@H](C)O)C(=O)N[C@@H](CC(N)=O)C(=O)N[C@@H](CC(C)C)C(=O)N[C@@H](Cc1c[nH]c2ccccc12)C(=O)N[C@@H](CCCNC(=N)N)C(=O)N[C@@H](CC(C)C)C(=O)N[C@@H](CC(C)C)C(=O)N[C@@](C)(CCCC=C)C(=O)N[C@@H](CCC(N)=O)C(=O)N[C@@H](CC(N)=O)C(N)=O`, the helicity stood at 55%.

As for `CC(=O)N[C@@H](CC(C)C)C(=O)N[C@H](C(=O)N[C@@H](Cc1ccccc1)C(=O)N[C@@H](CCC(=O)O)C(=O)N[C@@H](Cc1c[nH]cn1)C(=O)N[C@@H](Cc1ccc(O)cc1)C(=O)N[C@@H](Cc1c[nH]c2ccccc12)C(=O)N[C@@H](C)C(=O)N[C@@H](CCC(N)=O)C(=O)N[C@@H](CC(C)C)C(=O)N[C@H](C(=O)N[C@@H](CO)C(N)=O)[C@@H](C)O)[C@@H](C)O`, the helicity is -0.5%.

`CC(=O)N[C@@H](CC(C)C)C(=O)N[C@H](C(=O)N[C@@H](Cc1ccccc1)C(=O)N[C@]1(C)CCCCCCC=CCCC[C@@](C)(C(=O)N[C@@H](CO)C(=O)N[C@@H](C)C(N)=O)NC(=O)[C@H](CC(C)C)NC(=O)[C@H](CCC(N)=O)NC(=O)[C@H](C)NC(=O)[C@H](Cc2c[nH]c3ccccc23)NC(=O)[C@H](Cc2ccc(O)cc2)NC(=O)[C@H](Cc2c[nH]cn2)NC1=O)[C@@H](C)O`: the helicity amounted to 80.8%.

For `CC(=O)N[C@@H](CC(C)C)C(=O)N[C@H](C(=O)N[C@@H](Cc1ccccc1)C(=O)N[C@]1(C)CCCCCCCCCCC[C@@](C)(C(=O)N[C@@H](CO)C(=O)N[C@@H](C)C(N)=O)NC(=O)[C@H](CC(C)C)NC(=O)[C@H](CCC(N)=O)NC(=O)[C@H](C)NC(=O)[C@H](Cc2c[nH]c3ccccc23)NC(=O)[C@H](Cc2ccc(O)cc2)NC(=O)[C@H](Cc2c[nH]cn2)NC1=O)[C@@H](C)O`, the helicity was found to be 78.4%.

`CC(=O)N[C@@H](CC(C)C)C(=O)N[C@H](C(=O)N[C@@H](Cc1ccccc1)C(=O)N[C@]1(C)CCCCCCCCCCC[C@@](C)(C(=O)N[C@@H](CO)C(N)=O)NC(=O)[C@H](CC(C)C)NC(=O)[C@H](CCC(N)=O)NC(=O)[C@H](C)NC(=O)[C@H](Cc2c[nH]c3cc(Cl)ccc23)NC(=O)[C@H](Cc2ccc(O)cc2)NC(=O)[C@H](Cc2c[nH]cn2)NC1=O)[C@@H](C)O`: the helicity amounted to 69.5%.

`CC(=O)N[C@@H](CC(C)C)C(=O)N[C@H](C(=O)N[C@@H](Cc1ccccc1)C(=O)N[C@]1(C)CCCCCCCCCCC[C@@](C)(C(=O)N[C@@H](CO)C(N)=O)NC(=O)[C@H](CC(C)C)NC(=O)[C@H](CCC(N)=O)NC(=O)[C@H](CCCNC(=N)N)NC(=O)[C@H](Cc2c[nH]c3cc(Cl)ccc23)NC(=O)[C@H](Cc2ccc(O)cc2)NC(=O)[C@H](Cc2c[nH]cn2)NC1=O)[C@@H](C)O`: the helicity stood at 74.2%.

`CC(=O)N[C@@H](CCC(N)=O)C(=O)N[C@@H](CO)C(=O)N[C@@H](CCC(N)=O)C(=O)N[C@@H](CCC(N)=O)C(=O)N[C@H](C(=O)N[C@@H](Cc1ccccc1)C(=O)N[C@@H]1CCCCCCC=CCCC[C@@H](C(=O)N[C@@H](CCC(N)=O)C(=O)N[C@@H](CC(N)=O)C(N)=O)NC(=O)[C@H](CC(C)C)NC(=O)[C@H](CC(C)C)NC(=O)[C@H](CCCNC(=N)N)NC(=O)[C@H](Cc2c[nH]c3ccccc23)NC(=O)[C@H](CC(C)C)NC(=O)[C@H](CC(N)=O)NC1=O)[C@@H](C)O`: the helicity turned out to be 50.5%.

`CC(=O)N[C@@H](CCC(N)=O)C(=O)N[C@@H](CO)C(=O)N[C@@H](CCC(N)=O)C(=O)N[C@@H](CCC(N)=O)C(=O)N[C@H](C(=O)N[C@@H](Cc1ccccc1)C(=O)N[C@]1(C)CCCCCCCCCCC[C@@](C)(C(=O)N[C@@H](CCC(N)=O)C(=O)N[C@@H](CC(N)=O)C(N)=O)NC(=O)[C@H](CC(C)C)NC(=O)[C@H](CC(C)C)NC(=O)[C@H](CCCNC(=N)N)NC(=O)[C@H](Cc2c[nH]c3cc(Cl)ccc23)NC(=O)[C@H](CC(C)C)NC(=O)[C@H](CC(N)=O)NC1=O)[C@@H](C)O`: the helicity stood at 92.4%.

As to `CC(=O)N[C@@H](CCC(N)=O)C(=O)N[C@@H](CO)C(=O)N[C@@H](CCC(N)=O)C(=O)N[C@@H](CCC(N)=O)C(=O)N[C@H](C(=O)N[C@@H](Cc1ccccc1)C(=O)N[C@]1(C)CCCCCCCCCCC[C@@](C)(C(=O)N[C@@H](CCC(N)=O)C(=O)N[C@@H](CC(N)=O)C(N)=O)NC(=O)[C@H](CC(C)C)NC(=O)[C@H](CC(C)C)NC(=O)[C@H](CCCNC(=N)N)NC(=O)[C@](C)(Cc2c[nH]c3cc(Cl)ccc23)NC(=O)[C@H](CC(C)C)NC(=O)[C@H](CC(N)=O)NC1=O)[C@@H](C)O`, the helicity is 62.4%.

Take `CC(=O)N[C@@H](CCC(N)=O)C(=O)N[C@@H](CO)C(=O)N[C@@]1(C)CCCCCCCCC2(CCCCCCCCCCC[C@@](C)(C(=O)N[C@@H](CCC(N)=O)C(=O)N[C@@H](CC(N)=O)C(N)=O)NC(=O)[C@H](CC(C)C)NC(=O)[C@H](CC(C)C)NC(=O)[C@H](CCCNC(=N)N)NC(=O)[C@H](Cc3c[nH]c4ccccc34)NC(=O)[C@H](CC(C)C)NC(=O)[C@H](CC(N)=O)NC2=O)NC(=O)[C@H](Cc2ccccc2)NC(=O)[C@H]([C@@H](C)O)NC(=O)[C@H](CCC(N)=O)NC1=O` (some centres unmarked): the helicity came out at 96%.

Take `CC(=O)N[C@@H](CCC(N)=O)C(=O)N[C@@H](CO)C(=O)N[C@]1(C)CCCC=CCCCC2(CCCC=CCCC[C@@](C)(C(=O)N[C@@H](CC(C)C)C(=O)N[C@@H](CC(C)C)C(=O)NC(C)(C)C(=O)N[C@@H](CCC(N)=O)C(=O)N[C@@H](CC(N)=O)C(N)=O)NC(=O)[C@H](Cc3c[nH]c4ccccc34)NC(=O)[C@H](CC(C)C)NC(=O)[C@H](CC(N)=O)NC2=O)NC(=O)[C@H](Cc2ccccc2)NC(=O)[C@H]([C@@H](C)O)NC(=O)[C@H](CCC(N)=O)NC1=O` (some centres unmarked): the helicity is 0%.

`CC(=O)N[C@H](C(=O)N[C@@H](CO)C(=O)N[C@@H](Cc1ccccc1)C(=O)N[C@]1(C)CCCCCCCCCCC[C@@](C)(C(=O)N2CCC[C@H]2C(N)=O)NC(=O)[C@H](CC(C)C)NC(=O)[C@H](CC(C)C)NC(=O)[C@H](CC(N)=O)NC(=O)[C@H](Cc2c[nH]c3ccccc23)NC(=O)[C@H](Cc2ccc(O)cc2)NC(=O)[C@H](CCC(N)=O)NC1=O)[C@@H](C)O`: the helicity was determined as 2.6%.

For the compound `CC(=O)N[C@]1(C)CCCCCCCCCCC[C@@](C)(C(=O)N[C@@H](CC(C)C)C(=O)N[C@@H](Cc2c[nH]c3ccccc23)C(=O)N[C@@H](CCCNC(=N)N)C(=O)N[C@@H](CC(C)C)C(=O)N[C@@H](CC(C)C)C(=O)NC(C)(C)C(=O)N[C@@H](CCC(N)=O)C(=O)N[C@@H](CC(N)=O)C(N)=O)NC(=O)[C@H](CO)NC(=O)[C@H](Cc2ccccc2)NC(=O)[C@H]([C@@H](C)O)NC(=O)[C@H](CCC(N)=O)NC(=O)[C@H](CCC(N)=O)NC(=O)[C@H](CO)NC1=O`, the helicity was 66.7%.

In the case of `CCCC[C@@H]1NC(=O)[C@H](CCCNC(=N)N)NC(=O)[C@H](Cc2c[nH]c3ccccc23)NC(=O)[C@H](CC(C)C)NC(=O)[C@H](CC(N)=O)NC(=O)[C@](C)(NC(=O)[C@H](Cc2ccccc2)NC(=O)[C@@H](NC(=O)[C@H](CCC(N)=O)NC(=O)[C@H](CCC(N)=O)NC(=O)[C@H](CO)NC(=O)[C@H](CCC(N)=O)NC(C)=O)[C@@H](C)O)CCCCCCCCCCC[C@@](C)(C(=O)N[C@@H](CCC(N)=O)C(=O)N[C@@H](CC(N)=O)C(N)=O)NC(=O)[C@H](CC(C)C)NC1=O`, the helicity is 84.7%.

As to `CCCC[C@H](NC(C)=O)C(=O)N1CCC[C@H]1C(=O)N[C@@H](CCCNC(=N)N)C(=O)N[C@@H](Cc1ccccc1)C(=O)N[C@]1(C)CCCCCCCCCCC[C@@](C)(C(=O)N[C@@H](CCC(N)=O)C(=O)N[C@@H](CC(N)=O)C(N)=O)NC(=O)[C@H](CC(C)C)NC(=O)[C@H](CC(C)C)NC(=O)[C@H](CCCNC(=N)N)NC(=O)[C@H](Cc2c[nH]c3ccccc23)NC(=O)[C@H](Cc2ccc(O)cc2)NC(=O)[C@H](CC(N)=O)NC1=O`, the helicity stood at 61.6%.

For the compound `CC(=O)N[C@@H](C)C(=O)N[C@@H](C)C(=O)N[C@@H](C)C(=O)N[C@@H](CCCNC(=N)N)C(=O)N[C@@H](C)C(=O)N[C@@H](C)C(=O)N[C@]1(C)CCCCCCC=CCCC[C@@](C)(C(=O)N[C@@H](C)C(=O)N[C@@H](C)C(N)=O)NC(=O)[C@H](C)NC(=O)[C@H](C)NC(=O)[C@H](CCCNC(=N)N)NC(=O)[C@H](C)NC(=O)[C@H](C)NC(=O)[C@H](C)NC1=O` (Ac-AAARAA[R8]AAARAA[S5]AA-NH2; staple 7-14), the helicity was found to be 131%.

Regarding `CSCC[C@H](NC(=O)[C@H](Cc1ccccc1)NC(C)=O)C(=O)NC(C)(C)C(=O)N[C@@H](Cc1ccc(O)cc1)C(=O)N[C@@H](Cc1c[nH]c2cc(Cl)ccc12)C(=O)N[C@@H](CCC(=O)O)C(=O)NC1(C(=O)N[C@@H](CC(C)C)C(N)=O)CC1` (Ac-FM[Aib]Y[Trp(6-Cl)]E[Ac3c]L-NH2), the helicity is -3.6%.

Turning to `CC(=O)N[C@@H](CC(C)C)C(=O)N[C@H](C(=O)N[C@@H](Cc1ccccc1)C(=O)N[C@]1(C)CCCCCCC=CCCC[C@@](C)(C(=O)N[C@@H](CO)C(N)=O)NC(=O)[C@H](CC(C)C)NC(=O)[C@H](CCC(N)=O)NC(=O)[C@H](CCCNC(=N)N)NC(=O)[C@H](Cc2c[nH]c3ccccc23)NC(=O)[C@H](Cc2ccc(O)cc2)NC(=O)[C@H](Cc2c[nH]cn2)NC1=O)[C@@H](C)O` (Ac-LTF[R8]HYWRQL[S5]S-NH2; staple 4-11), the helicity was 59.5%.

Turning to `CC(=O)N[C@@H](CCC(N)=O)C(=O)N[C@@H](CO)C(=O)N[C@@H](CCC(N)=O)C(=O)N[C@@H](CCC(N)=O)C(=O)N[C@H](C(=O)N[C@@H](Cc1ccccc1)C(=O)N[C@]1(C)CCCCCCC=CCCC[C@@](C)(C(=O)N[C@@H](CCC(N)=O)C(N)=O)NC(=O)[C@H](CC(C)C)NC(=O)[C@H](CC(C)C)NC(=O)[C@H](CCCNC(=N)N)NC(=O)[C@H](Cc2c[nH]c3ccccc23)NC(=O)[C@H](CC(C)C)NC(=O)[C@H](CC(N)=O)NC1=O)[C@@H](C)O` (Ac-QSQQTF[R8]NLWRLL[S5]Q-NH2; staple 7-14), the helicity was found to be 77.8%.

In the case of `CC(=O)N[C@@H](CCC(N)=O)C(=O)N[C@@H](CO)C(=O)N[C@@H](CCC(N)=O)C(=O)N[C@@H](CCC(N)=O)C(=O)N[C@H](C(=O)N[C@@H](Cc1ccccc1)C(=O)N[C@]1(C)CCCCCCC=CCCC[C@@](C)(C(=O)N[C@@H](CCC(N)=O)C(=O)N[C@@H](CC(N)=O)C(N)=O)NC(=O)[C@H](CC(C)C)NC(=O)[C@H](CC(C)C)NC(=O)[C@H](CCCNC(=N)N)NC(=O)[C@](C)(Cc2c[nH]c3cc(Cl)ccc23)NC(=O)[C@H](CC(C)C)NC(=O)[C@H](CC(N)=O)NC1=O)[C@@H](C)O` (Ac-QSQQTF[R8]NL[X2]RLL[S5]QN-NH2; staple 7-14), the helicity worked out at 60.9%.
